Substrate: NCCSc1ccc(O)cc1
Experiment: Enzyme kinetics with monoamineoxidase (substrate disappearance by HPLC, Lineweaver-Burk)
Assay type: biochemical
Details: other: plasma monoamine oxidase, 0.005 unit/ml, pH 7.4, 37°C
Procedure: Mushroom tyrosinase (400 units/mg) and plasma MAO (1000 units/gm) were obtained from Sigma Chemical Co. (St. Louis, MO, USA). A reaction mixture consisted of a substrate of 7 to 8 different concentrations (40 to 500 »M for mushroom tyrosinase and 20 to 200 »M for MAO) and of either mushroom tyrosinase (2.5 »g) or MAO (10 »g) in 1.0 mL of 0.05 M sodium phosphate buffer, pH 6.8 and 7.4 respectively. The reactions were carried out at 37°C in a shaking water bath, and stopped by taking 100 »L of the reaction mixture and adding it to 900 »L of 0.4 M HCLO₄. The disappearance of substrate was followed using HPLC (high pressure liquid chromatography) Km and Vmax values were calculated from the Lineweaver-Burk plots.

B1: plasma MAO (Bos taurus) (protein)
chain: REEGGVGSEEGVGKQCHPSLPPRCPSRSPSDQPWTHPDQSQLFADLSREELTTVMSFLTQQLGPDLVDAAQARPSDNCVFSVELQLPPKAAALAHLDRGSPPPAREALAIVFFGGQPQPNVTELVVGPLPQPSYMRDVTVERHGGPLPYYRRPVLLREYLDIDQMIFNRELPQAAGVLHHCCSYKQGGQKLLTMNSAPRGVQSGDRSTWFGIYYNITKGGPYLHPVGLELLVDHKALDPADWTVQKVFFQGRYYENLAQLEEQFEAGQVNVVVIPDDGTGGFWSLKSQVPPGPTPPLQFHPQGPRFSVQGNRVASSLWTFSFGLGAFSGPRVFDVRFQGERLAYEISLQEAGAVYGGNTPAAMLTRYMDSGFGMGYFATPLIRGVDCPYLATYMDWHFVVESQTPKTLHDAFCVFEQNKGLPLRRHHSDFLSHYFGGVAQTVLVFRSVSTMLNYDYVWDMVFYPNGAIEVKLHATGYISSAFLFGAARRYGNQVGEHTLGPVHTHSAHYKVDLDVGGLENWVWAEDMAFVPTAIPWSPEHQIQRLQVTRKQLETEEQAAFPLGGASPRYLYLASKQSNKWGHPRGYRIQTVSFAGGPMPQNSPMERAFSWGRYQLAITQRKETEPSSSSVFNQNDPWTPTVDFSDFINNETIAGKDLVAWVTAGFLHIPHAEDIPNTVTVGNGVGFFLRPYNFFDQEPSMDSADSIYFREGQDAGSCEINPLACLPQAATCAPDLPVFSHGGYPEY
notes: purchased Sigma Chemical Co. (St. Louis, MO, USA)
- Km: 52.6 µM
